Where a chain is given by its changes, count along the chain named. Each block holds one binder with its values, some of them ahead of it.
Columns and labels:
[1] = molecular target: T1, Recombinant Rhesus macaque VEGFR2/KDR Protein, His tag (rhesus macaque); assay: ELISA, rhesus VEGFR2-his coated, anti-human Fc-HRP
T1 construct: Expressed in HEK293, bought from ACRO Biosystems; also called rhesus VEGFR2-his; rhesus VEGFR2
T1 chain: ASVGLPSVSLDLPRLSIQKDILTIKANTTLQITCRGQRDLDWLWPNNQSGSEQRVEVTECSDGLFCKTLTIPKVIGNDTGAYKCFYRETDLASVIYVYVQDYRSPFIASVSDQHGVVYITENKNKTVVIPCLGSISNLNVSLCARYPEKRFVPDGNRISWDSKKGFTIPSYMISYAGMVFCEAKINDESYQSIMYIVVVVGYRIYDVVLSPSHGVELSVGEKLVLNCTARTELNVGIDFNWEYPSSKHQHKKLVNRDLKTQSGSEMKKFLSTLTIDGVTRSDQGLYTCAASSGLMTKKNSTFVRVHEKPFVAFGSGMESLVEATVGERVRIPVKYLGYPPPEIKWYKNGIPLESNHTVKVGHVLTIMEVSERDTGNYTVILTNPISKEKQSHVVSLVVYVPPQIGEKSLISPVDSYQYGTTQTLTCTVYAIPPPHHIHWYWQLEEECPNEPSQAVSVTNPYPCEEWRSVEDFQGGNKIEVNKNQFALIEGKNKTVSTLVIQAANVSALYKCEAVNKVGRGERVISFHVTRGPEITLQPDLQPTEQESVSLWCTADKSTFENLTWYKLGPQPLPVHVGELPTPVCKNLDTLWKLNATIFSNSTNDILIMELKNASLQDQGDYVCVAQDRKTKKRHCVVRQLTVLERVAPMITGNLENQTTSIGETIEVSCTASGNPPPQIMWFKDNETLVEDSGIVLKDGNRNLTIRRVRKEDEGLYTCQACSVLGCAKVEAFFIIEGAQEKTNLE
Protocol: (§1) Same protocol of Example 2 antibody screening by ELISA assay. Briefly, 0.5 μg/ml hVEGFR2-his was coated and serially diluted purified antibodies would bind to coated antigen. Using HRP conjugated goat anti-mouse Fc antibody could detect binding signals of each antibody.
(§2) Same protocol of Example 4 except using HRP conjugated goat anti-human Fc antibody as secondary antibody. Binding to hVEGFR2-his and rhesus VEGFR2-his (Acrobiosystems, Cat #VE2-C52H3) were also analyzed head-to-head.

[2] = molecular target: T2, Recombinant Human VEGFR2/KDR Protein, His tag (hVEGFR2-his) (human, UniProt P35968 20-764); assay: ELISA, hVEGFR2-his coated (0.5 ug/ml), anti-human Fc-HRP
T2 construct: Expressed in HEK293, bought from ACRO Biosystems; also called human VEGFR2-his; Human VEGFR2/KDR-His
Protocol: as §1, §2

[3] = molecular target: T3, human VEGFR2 on HUVEC cells (human, UniProt P35968 20-1356); assay: flow cytometry on HUVEC cells, percent shifted cells (Shift %), anti-human IgG-PE
T3 construct: also called hVEGFR2 on HUVEC

[4] = molecular target: T2, Recombinant Human VEGFR2/KDR Protein, …; assay: competition ELISA: VEGF-A coated (0.25 ug/ml), antibody mixed with VEGFR2, detection with mouse anti-VEGFR2 serum and anti-mouse Fc-HRP; blocked ligand VEGF-A
Protocol: For this assay, 0.25 μg/ml VEGF-A was coated on ELISA plate before a mixture of chimeric antibodies and VEGFR2 were added. To detect free VEGF-A (not bind to VEGFR2), 1:1000 diluted mouse serum (mouse previous immunized with human VEGFR2) were added and HRP conjugated goat anti-mouse Fc antibody was used as secondary antibody.

[5] = molecular target: T2, Recombinant Human VEGFR2/KDR Protein, …; assay: ELISA, hVEGFR2-his coated, anti-human Fc-HRP
Protocol: as §2
Same protocol of Example 9.

[6] = molecular target: T2, Recombinant Human VEGFR2/KDR Protein, …; assay: SPR (Biacore), antibody captured by anti-Fc, antigen 2.5-80 nM
Protocol: A CM5 sensor chip was activated in each flow cell by 7-min injection (10 μl/min) of freshly prepared 1:1 50 mM N-hydroxysuccinimide (NHS): 200 mM 1-ethyl-3-(3-dimethylaminopropyl)-carbodiimide (EDC). Then anti-human Fc antibody (GE Healthcare) in a concentration of 10 μg/ml in 10 mM sodium acetate buffer PH 5.0 was injected onto the activated chip at 10 μl/min (HBS-EP running buffer: 10 mM HEPES, 150 mM NaCl, 3.4 mM EDTA, 0.005% surfactant P20, pH 7.4). The remaining active coupling sites were blocked by 7 min injection of 1M ethanolamine at 10 μl/min. The immobilization level of each flow cell is ˜9000RU. Antibodies were captured in FC2 by anti-human Fc IgG or anti-mouse Fc (GE Healthcare) to 200˜300RU. FC1 was used as the reference cell. Antigen was injected at varying concentrations (2.5 nM, 5 nM, 10 nM, 20 nM, 40 nM and 80 nM) after capture of antibody. The association time for antibody binding antigen is 180s. Surface Regeneration condition is 120s at 10 μl/min in Gly pH1.5. The signals with captured antibody subtracted from those without captured antibody were calculated with Biacore X100 evaluation software ver. 2.0 (Biacore).

- EC50 [1]: 0.0299 µg/mL
- EC50 [2]: 0.015 µg/mL
- EC50 [3]: 0.157 µg/mL
- IC50 [4]: 0.148 µg/mL
B1: 042C (chimeric 042) (antibody, V domains shown)
VH: EVQLVESGGDLVKPGGSLKLSCTASGFSFSIYGMSWVRQTPDKRLEWVASISVGGSYTYYADSVEGRFTISRENAKNTLYLQMNSLKSEDTALYYCARELDGNYDYWGQGTSLTVSS
VL: DIVITQNELSNPVTFGESVSISCRSSKSLLYKDGKTYLNWFLQRPGQSPQLLIYLMSTRASGVSDRFSGSGSGTDFTLEISRVKAEDVGVYYCQQLVEYPFTFGSGTKLEIK
notes: Chimeric antibody with human constant regions (vector pCP-Hck/Hcg1)

- EC50 [5]: 0.0186 µg/mL
- EC50 [1]: 0.0168 µg/mL
- Kd [6]: 2.45 nM
- koff [6]: 0.000113 s⁻¹
- kon [6]: 46000 M⁻¹ s⁻¹
- EC50 [2]: 0.0189 µg/mL
- EC50 [3]: 0.0875 µg/mL
- IC50 [4]: 0.1 µg/mL
B2: 054C (chimeric 054) (antibody, V domains shown)
VH: B1 VH with T23A, S28T, I31M, V53I, T69I, Y80F, S112T
VL: B1 VL with D1H, V3M, N7D, V90I
notes: as for B1

- EC50 [5]: 0.00574 µg/mL
- EC50 [1]: 0.0101 µg/mL
- EC50 [2]: 0.0053 µg/mL
- IC50 [4]: 0.09 µg/mL
B3: 048C (chimeric 048) (antibody, V domains shown)
VH: B1 VH with T23A, S28T, I31M, V53I, Y80F, L100M, Q109H, S112T
VL: B1 VL with I2V, V3M, N7D, V90I
notes: as for B1

— patent US20240209099A1 (SUZHOU TRANSCENTA THERAPEUTICS, published 2024)
